These results are taken from paper PMC11059233.

In this experiment the target is HLA-B*35:01 expressed in C1R cells (C1R.B*35:01) (human | human (endogenous in C1R)).

Consider influenza B virus PB2_(66-70) peptide, for which the IFN-γ+TNF+ CD8+ T cells (expanded with pool J) after restimulation with peptide-pulsed C1R.B*35:01; donors responding is 1 of 6 donors.
